Test results from patent publication US20240270866A1 (Alector, published 2024).

Columns and labels:
[1] = molecular target: T1, mouse SIRPA overexpressed on CHO cells (mouse, UniProt P97797 32-513); assay: flow, CHO-muSIRPA;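 for relative MFI: antibody binding measured by flow cytometry: cells stained with 1 ug/ml test antibody for 1 h on ice, detected with PE-labelled secondary antibody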
T1 construct: also called CHO-muSIRPA
T1 sequence: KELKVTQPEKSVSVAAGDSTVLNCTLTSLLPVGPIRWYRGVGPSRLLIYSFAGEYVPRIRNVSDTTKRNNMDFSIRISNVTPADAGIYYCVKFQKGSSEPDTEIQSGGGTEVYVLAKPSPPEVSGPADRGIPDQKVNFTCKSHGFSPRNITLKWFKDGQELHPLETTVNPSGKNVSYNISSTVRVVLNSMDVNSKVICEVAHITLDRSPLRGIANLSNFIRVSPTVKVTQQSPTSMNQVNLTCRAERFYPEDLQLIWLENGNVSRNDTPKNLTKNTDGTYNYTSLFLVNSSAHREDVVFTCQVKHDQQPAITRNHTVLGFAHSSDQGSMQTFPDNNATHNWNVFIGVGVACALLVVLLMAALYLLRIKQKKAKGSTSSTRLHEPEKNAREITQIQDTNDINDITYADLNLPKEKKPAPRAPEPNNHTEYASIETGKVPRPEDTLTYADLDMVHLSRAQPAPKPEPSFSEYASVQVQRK

Mouse SIRPA D1 Fc = molecular target: T2, Mouse SIRPA D1 Fc (mouse, UniProt P97797 32-150, limits assumed); assay: ForteBio IgG avid;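 note: antibody IgG captured on AHQ biosensors, then 100 nM Fc-fused SIRP antigen applied for 3 min, followed by 3 min buffer dissociation, kinetics fitted to a 1:1 model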
T2 sequence: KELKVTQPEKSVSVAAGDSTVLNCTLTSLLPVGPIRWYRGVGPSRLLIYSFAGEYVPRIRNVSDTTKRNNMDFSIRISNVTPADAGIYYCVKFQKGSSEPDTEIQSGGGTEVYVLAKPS
Experimental: (§1) Briefly, ForteBio affinity measurements were performed by loading IgGs on-line onto AHQ sensors. Sensors were equilibrated off-line in assay buffer for 30 min and then monitored on-line for 60 seconds for baseline establishment. For avid binding measurement, sensors with loaded IgGs were exposed to 100 nM antigen (human SIRPA or SIRPβ1 Fc fusion) for 3 min, afterwards they were transferred to assay buffer for 3 min for off-rate measurement. Additional avid binding was determined by loading biotinylated SIRPA monomer on SA sensors and exposure to 100 nM IgG in solution. Monovalent binding measurements were obtained by loading human SIRPA or SIRPβ1 Fc fusion antigens to AHQ sensor and followed by exposure to 100 nM anti-SIRPA antibody Fab. Additional monovalent measurements were made by loading biotinylated human SIRPA or SIRPβ1 monomer to SA sensor followed by exposure to 100 nM Fab in solution. Kinetics data were fit using a 1:1 binding model in the data analysis software provided by ForteBio.

[2] = molecular target: T3, human SIRPA overexpressed on CHO cells (human, UniProt P78324 31-504); assay: flow, CHO-huSIRPA;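 note: Anti-SIRPA antibodies applied at 1 µg/mL for 1 h on ice, binding read by flow cytometry using a PE-labelled secondary antibody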
T3 construct: also called CHO-huSIRPA
Experimental: (§2) Initial characterization of anti-SIRPA antibodies of the present disclosure involved determining their ability to bind cell lines overexpressing human or mouse SIRPA. Cells were harvested, plated at 10⁶/ml in a 96 well plate, washed, and incubated in 100 ul PBS containing 1 ug/ml Mab for 1 hour in ice. Cells were then washed twice and incubated in 100 ul PBS containing 5 ug/ml PE-conjugated secondary antibody for 30 minutes in ice. Cells were washed twice in cold PBS and acquired on a BD FACS Canto. Data analysis and calculation of mean fluorescence intensity (MFI) values or % positive cells was performed with FlowJo® (TreeStar) software version 10.0.7.

[3] = molecular target: T1, mouse SIRPA overexpressed on CHO cells; assay: flow, CHO-muSIRPA; remark: listed apart in the source;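 for relative MFI: antibody binding measured by flow cytometry: cells stained with 1 ug/ml test antibody for 1 h on ice, detected with PE-labelled secondary antibody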
Experimental: as §2

Human SIRPb D1 Fc = Human SIRPb D1 Fc (human, UniProt O00241 30-148, limits assumed); assay: ForteBio IgG avid;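 note: antibody IgG captured on AHQ biosensors, then 100 nM Fc-fused SIRP antigen applied for 3 min, followed by 3 min buffer dissociation, kinetics fitted to a 1:1 model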
Chain of Human SIRPb D1 Fc (O00241 30-148 limits assumed): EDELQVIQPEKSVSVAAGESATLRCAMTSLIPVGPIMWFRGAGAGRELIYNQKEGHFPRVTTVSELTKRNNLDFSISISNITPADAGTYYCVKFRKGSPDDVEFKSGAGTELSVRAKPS
Experimental: as §1

B1: SA-51 (antibody, V domains shown)
VH: QVQLVQSGAEVKKPGSSVKVSCKASGGTFSSYAISWVRQAPGQGLEWMGSIIPIFGTANYAQKFQGRVTITADESTSTAYMELSSLRSEDTAVYYCARGGYAAGTDYYMGVWGKGTTVTVSS
VL: not shown
notes: IgG
- binding result [1]: no binding (tested: 1 ug/ml)
- binding result (Mouse SIRPA D1 Fc): no binding (tested: 100 nM)

B2: SA-8 (antibody, V domains shown)
VH: QVQLVESGGGVVQPGRSLRLSCAASGFTFSSYGMHWVRQAPGKGLEWVAVISYDGSNKYYADSVKGRFTISRDNSKNTLYLQMNSLRAEDTAVYYCAKEPRSYWHGYGMDVWGQGTTVTVSS
VL: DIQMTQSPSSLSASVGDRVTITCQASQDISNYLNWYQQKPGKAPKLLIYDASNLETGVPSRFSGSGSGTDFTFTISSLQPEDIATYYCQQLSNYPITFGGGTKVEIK
notes: IgG; also called SA-8 (parental)
- binding result [1]: no binding (tested: 1 ug/ml)
- binding result (Mouse SIRPA D1 Fc): no binding (tested: 100 nM)
- relative MFI [2]: 57.8 fold over background
- relative MFI [3]: 0.5 fold over background

B3: SA-20 (antibody, V domains shown)
VH: QVQLVESGGGVVQPGRSLRLSCAASGFTFSSYGMHWVRQAPGKGLEWVAVISYDGSNKYYADSVKGRFTISRDNSKNTLYLQMNSLRAEDTAVYYCAKEPRSYWHGYGMDVWGQGTTVTVSS
VL: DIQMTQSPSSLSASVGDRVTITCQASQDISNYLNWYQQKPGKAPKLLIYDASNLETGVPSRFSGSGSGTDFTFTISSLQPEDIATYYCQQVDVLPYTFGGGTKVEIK
notes: IgG
- binding result [1]: no binding (tested: 1 ug/ml)
- binding result (Mouse SIRPA D1 Fc): no binding (tested: 100 nM)
- binding result (Human SIRPb D1 Fc): no binding (tested: 100 nM)
- relative MFI [2]: 5.19 fold over background
- relative MFI [3]: 0.786 fold over background

B4: SA-30 (antibody, V domains shown)
VH: QVQLVESGGGVVQPGRSLRLSCAASGFTFSSYGMHWVRQAPGKGLEWVAVIWYDGSNKYYADSVKGRFTISRDNSKNTLYLQMNSLRAEDTAVYYCARDTGSATTMWLYGMDVWGKGTTVTVSS
VL: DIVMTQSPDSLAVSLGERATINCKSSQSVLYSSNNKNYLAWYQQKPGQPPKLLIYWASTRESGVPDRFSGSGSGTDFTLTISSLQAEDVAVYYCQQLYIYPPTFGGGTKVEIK
notes: IgG
- binding result [1]: no binding (tested: 1 ug/ml)
- binding result (Mouse SIRPA D1 Fc): no binding (tested: 100 nM)
- binding result (Human SIRPb D1 Fc): no binding (tested: 100 nM)
- relative MFI [2]: 41.2 fold over background
- relative MFI [3]: 0.595 fold over background

B5: SA-10 (antibody, V domains shown)
VH: EVQLVESGGGLVQPGRSLRLSCAASGFTFDDYAMHWVRQAPGKGLEWVSGITWNSGSIGYADSVKGRFTISRDNAKNSLYLQMNSLRAEDTALYYCAKGKQYSANYFDYWGQGTLVTVSS
VL: DIQMTQSPSTLSASVGDRVTITCRASQSISSWLAWYQQKPGKAPKLLIYEASSLESGVPSRFSGSGSGTEFTLTISSLQPDDFATYYCQQDNSLPYTFGGGTKVEIK
notes: IgG
- binding result [1]: no binding (tested: 1 ug/ml)
- binding result (Mouse SIRPA D1 Fc): no binding (tested: 100 nM)
- binding result (Human SIRPb D1 Fc): no binding (tested: 100 nM)
- relative MFI [2]: 4.62 fold over background
- relative MFI [3]: 0.583 fold over background

B6: SA-55 (antibody, V domains shown)
VH: EVQLVESGGGLVQPGGSLRLSCAASGFTFSSYWMSWVRQAPGKGLEWVANIKQDGSEKYYVDSVKGRFTISRDNAKNSLYLQMNSLRAEDTAVYYCARGSPYYDAYDFDLWGRGTLVTVSS
VL: DIQLTQSPSTLSASVGDRVTITCRASQAISSWLAWYQQKPGKAPKLLIYDASSLESGVPSRFSGSGSGTEFTLTISSLQPDDFATYYCQQYESFPWTFGGGTKVEIK
notes: IgG
- binding result [1]: no binding (tested: 1 ug/ml)
- binding result (Mouse SIRPA D1 Fc): no binding (tested: 100 nM)
- relative MFI [3]: 0.464 fold over background

B7: SA-11 (antibody, V domains shown)
VH: EVQLVESGGGLVQPGRSLRISCAASGFTFGDYAMHWVRQAPGKGLEWVSGISWNSGSIGYADSVKGRFTISRDNAKNSLYLQMNSLRAEDTALYYCAKTRYGYYSYDFDLWGRGTLVTVSS
VL: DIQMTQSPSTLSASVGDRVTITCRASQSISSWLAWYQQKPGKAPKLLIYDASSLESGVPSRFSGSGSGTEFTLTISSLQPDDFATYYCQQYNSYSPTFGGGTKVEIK
notes: IgG
- binding result [1]: no binding (tested: 1 ug/ml)
- binding result (Mouse SIRPA D1 Fc): no binding (tested: 100 nM)
- binding result (Human SIRPb D1 Fc): no binding (tested: 100 nM)
- relative MFI [2]: 0.972 fold over background
- relative MFI [3]: 0.851 fold over background

B8: SA-9 (antibody, V domains shown)
VH: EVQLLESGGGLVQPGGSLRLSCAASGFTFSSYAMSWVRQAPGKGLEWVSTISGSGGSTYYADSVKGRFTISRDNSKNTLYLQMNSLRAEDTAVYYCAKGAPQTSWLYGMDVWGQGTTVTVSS
VL: DIQMTQSPSSVSASVGDRVTITCRASQGISSWLAWYQQKPGKAPKLLIYAASSLQSGVPSRFSGSGSGTDFTLTISSLQPEDFATYYCQQAYLYPITFGGGTKVENQ
notes: IgG
- binding result [1]: no binding (tested: 1 ug/ml)
- binding result (Mouse SIRPA D1 Fc): no binding (tested: 100 nM)
- relative MFI [3]: 0.646 fold over background

B9: SA-18 (antibody, V domains shown)
VH: EVQLVESGGGLVQPGGSLRLSCAASGFTFSSYWMSWVRQAPGKGLEWVANIKSDGSEKYYVDSVKGRFTISRDNAKNSLYLQMNSLRAEDTAVYYCARDLSYEPSYPFDIWGQGTMVTVSS
VL: DIQMTQSPSSVSASVGDRVTITCRASQGISSWLAWYQQKPGKAPKLLIYAASSLQSGVPSRFSGSGSGTDFTLTISSLQPEDFATYYCQQALSFPFTFGGGTKVEIK
notes: IgG
- binding result [1]: no binding (tested: 1 ug/ml)
- binding result (Mouse SIRPA D1 Fc): no binding (tested: 100 nM)
- binding result (Human SIRPb D1 Fc): no binding (tested: 100 nM)
- relative MFI [2]: 2.13 fold over background
- relative MFI [3]: 0.56 fold over background

B10: SA-49 (antibody, V domains shown)
VH: EVQLVESGGGLVKPGGSLRLSCAASGFTFSSYSMNWVRQAPGKGLEWVSSISSSSSYIYYADSVKGRFTISRDNAKNSLYLQMNSLRAEDTAVYYCARGAPSMQYSPYYYYGMDVWGQGTTVTVSS
VL: DIQMTQSPSSVSASVGDRVTITCRASQGISSWLAWYQQKPGKAPKLLIYAASSLQSGVPSRFSGSGSGTDFTLTISSLQPEDFATYYCQQVSLYPPTFGGGTKVEIK
notes: IgG
- binding result [1]: no binding (tested: 1 ug/ml)
- binding result (Mouse SIRPA D1 Fc): no binding (tested: 100 nM)
- relative MFI [3]: 0.53 fold over background

B11: SA-5 (antibody, V domains shown)
VH: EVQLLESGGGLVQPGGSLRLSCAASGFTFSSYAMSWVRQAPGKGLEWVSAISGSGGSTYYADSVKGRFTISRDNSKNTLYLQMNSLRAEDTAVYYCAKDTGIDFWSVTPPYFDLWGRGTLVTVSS
VL: DIQLTQSPSSVSASVGDRVTITCRASQDISSWLAWYQQKPGKAPKLLIYAASSLQSGVPSRFSGSGSGTDFTLTISSLQPEDFATYYCQQGYIFPRTFGGGTKVEIK
notes: IgG; also called SA-5 (parental)
- binding result [1]: no binding (tested: 1 ug/ml)
- binding result (Mouse SIRPA D1 Fc): no binding (tested: 100 nM)
- relative MFI [3]: 0.533 fold over background

B12: SA-33 (antibody, V domains shown)
VH: QVQLVQSGAEVKKPGSSVKVSCKASGGTFSSYAISWVRQAPGQGLEWMGGIIPIFGTASYAQKFQGRVTITADESTSTAYMELSSLRSEDTAVYYCARDVGMARGDPYGMDVWGQGTTVTVSS
VL: DIQMTQSPSSVSASVGDRVTITCRASQGISSWLAWYQQKPGKAPKLLISAASSLQSGVPSRFSGSGSGTDFTLTISSLQPEDFATYYCLQAYSFPFTFGGGTKVEIK
notes: IgG
- binding result [1]: no binding (tested: 1 ug/ml)
- binding result (Mouse SIRPA D1 Fc): no binding (tested: 100 nM)
- relative MFI [3]: 0.708 fold over background

B13: SA-54 (antibody, V domains shown)
VH: QLQLQESGPGLVKPSETLSLTCTVSGGSISSSSYYWGWIRQPPGKGLEWIGSIYYSGSTYYNPSLKSRVTISVDTSKNQFSLKLSSVTAADTAVYYCARGSGIAAADTDGLPMDVWGQGTTVTVSS
VL: DIQMTQSPSSVSASVGDRVTITCRASQGISSWLAWYQQKPGKAPKLLIYAASSLQSGVPSRFSGSGSGTDFTLTISSLQPEDFATYYCQQVYLFPITFGGGTKVEIK
notes: IgG
- binding result [1]: no binding (tested: 1 ug/ml)
- binding result (Mouse SIRPA D1 Fc): no binding (tested: 100 nM)
- relative MFI [3]: 0.461 fold over background

B14: SA-46 (antibody, V domains shown)
VH: EVQLLESGGGLVQPGGSLRLSCAASGFTFSTYAMSWVRQAPGKGLEWVSAISGSGGSTYYADSVKGRFTISRDNSKNTLYLQMNSLRAEDTAVYYCARESYDSSLHYYGMDVWGQGTTVTVSS
VL: EIVLTQSPGTLSLSPGERATLSCRASQSVSSSYLAWYQQKPGQAPRLLIYGASSRATGIPDRFSGSGSGTDFTLTISRLEPEDFAVYYCQQHFSLPPTFGGGTKVEIK
notes: IgG
- binding result [1]: no binding (tested: 1 ug/ml)
- binding result (Mouse SIRPA D1 Fc): no binding (tested: 100 nM)
- relative MFI [3]: 0.476 fold over background

B15: SA-17 (antibody, V domains shown)
VH: QVQLVQSGAEVKKPGSSVKVSCKASGGTFSSYAISWVRQAPGQGLEWMGGIIPIFGTASYAQKFQGRVTITADESTSTAYMELSSLRSEDTAVYYCARDLSAFYVGPFDYWGQGTLVTVSS
VL: EIVMTQSPATLSVSPGERATLSCRASQSVSSSLAWYQQKPGQAPRLLIYGASTRATGIPARFSGSGSGTEFTLTISSLQSEDFAVYYCQQDYIWPLTFGGGTKVEIK
notes: IgG
- binding result [1]: no binding (tested: 1 ug/ml)
- binding result (Mouse SIRPA D1 Fc): no binding (tested: 100 nM)
- binding result (Human SIRPb D1 Fc): no binding (tested: 100 nM)
- relative MFI [2]: 0.989 fold over background
- relative MFI [3]: 0.476 fold over background

B16: SA-15 (antibody, V domains shown)
VH: QVQLVQSGAEVKKPGSSVKVSCKASGGTFSSYAISWVRQAPGQGLEWMGGIIPIFGTANYAQKFQGRVTITADESTSTAYMELSSLRSEDTAVYYCARDGSYSYATYWGQGTLVTVSS
VL: EIVLTQSPATLSLSPGERATLSCRASQSVSSYLAWYQQKPGQAPRLLIYDASNRATGIPARFSGSGSGTDFTLTISSLEPEDFAVYYCQQPYNFPLTFGGGTKVEIK
notes: IgG
- binding result [1]: no binding (tested: 1 ug/ml)
- binding result (Mouse SIRPA D1 Fc): no binding (tested: 100 nM)
- Kd (Human SIRPb D1 Fc): 28.4 nM
- relative MFI [2]: 0.768 fold over background
- relative MFI [3]: 0.512 fold over background

B17: SA-24 (antibody, V domains shown)
VH: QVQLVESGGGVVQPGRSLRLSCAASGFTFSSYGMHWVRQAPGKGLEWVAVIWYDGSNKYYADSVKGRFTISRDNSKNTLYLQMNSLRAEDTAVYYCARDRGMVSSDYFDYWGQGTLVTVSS
VL: EIVLTQSPATLSLSPGERATLSCRASQSVSSYLAWYQQKPGQAPRLLIYDASNRATGIPARFSGSGSGTDFTLTISSLEPEDFAVYYCQQRLDWPYTFGGGTKVEIK
notes: IgG
- binding result [1]: no binding (tested: 1 ug/ml)
- binding result (Mouse SIRPA D1 Fc): no binding (tested: 100 nM)
- relative MFI [3]: 0.542 fold over background
